Data taken from PMC3923860.

Experiments:
[1] = tested on: histone H1o (H1) (human); experiment: EMSA; details: no competitor DNA, EMSA: 50 mM NaCl, 25 mM Tris-HCl pH 7.5, 1 mM EDTA, 1 mM DTT, 100 ug/ml acetylated BSA, 3% glycerol, 30 min on ice
[2] = tested on: oxidized HMGB1 (Cys23-Cys45 disulfide) (rat (sequence identical to human)); experiment: EMSA; details: EMSA: 50 mM NaCl, 25 mM Tris-HCl pH 7.5, 1 mM EDTA, 1 mM DTT, 100 ug/ml acetylated BSA, 3% glycerol, 30 min on ice
[3] = tested on: reduced HMGB1 (all-thiol) (rat (sequence identical to human)); experiment: EMSA; details: EMSA: 50 mM NaCl, 25 mM Tris-HCl pH 7.5, 1 mM EDTA, 1 mM DTT, 100 ug/ml acetylated BSA, 3% glycerol, 30 min on ice
[4] = tested on: oxidized HMGB1 (Cys23-Cys45 disulfide) (rat (sequence identical to human)); experiment: ligase-mediated circularization; details: bending, EMSA: 50 mM NaCl, 25 mM Tris-HCl pH 7.5, 1 mM EDTA, 1 mM DTT, 100 ug/ml acetylated BSA, 3% glycerol, 30 min on ice, gels 0.5x TBE, 4 C
[5] = covalently closed circle, gels 0.5x TBE …

## 66-bp DNA minicircle
[1]; [5]
  Kd: 5000 pM
[2]; oxidized, covalently closed circle, gels 0.5x TBE …
  Kd: 250 pM
[3]; [5]
  Kd: < 100 pM

## 123-bp DNA duplex
[4]
  binding signal (% of minicircles with reduced HMGB1): < 20

## hemicatenated DNA loops (hcDNA)
[1]; gels 0.5x TBE, 4 C
  Kd: 6000 pM
[2]; gels 0.5x TBE, 4 C
  Kd: < 10 pM
[2]; oxidized, gels 0.5x TBE, 4 C
  binding signal (fold lower affinity than reduced (up to)): 10
[3]; gels 0.5x TBE, 4 C
  Kd: < 10 pM
